T1: KRAS G12V peptide on HLA-A*11:01 (human)
T1 peptide: VVVGAVGVGK

T2: KRAS G12D peptide on HLA-A*11:01 (human)
T2 peptide: VVVGADGVGK

T3: KRAS G12S peptide on HLA-A*11:01 (human)
T3 peptide: VVVGASGVGK

T4: KRAS G12C peptide on HLA-A*11:01 (human)
T4 peptide: VVVGACGVGK

T5: KRAS G12A peptide on HLA-A*11:01 (human)
T5 peptide: VVVGAAGVGK

B1: HLA-A*11:01/KRAS G12V-specific TCR1 (TCR)
TCR alpha: KQEVTQIPAALSVPEGENLVLNCSFTDSAIYNLQWFRQDPGKGLTSLLLIQSSQREQTSGRLNASLDKSSGRSTLYIAASQPGDSATYLCAVNSYSGAGSYQLTFGKGTKLSVIPNIQNPDPAVYQLRDSKSSDKSVCLFTDFDSQTNVSQSKDSDVYITDKTVLDMRSMDFKSNSAVAWSNKSDFACANAFNNSIIPEDTFFPSPESSCDVKLVEKSFETDTNLNFQNLSVIGFRILLLKVAGFNLLMTLRLWSS
TCR beta: EPEVTQTPSHQVTQMGQEVILRCVPISNHLYFYWYRQILGQKVEFLVSFYNNEISEKSEIFDDQFSVERPDGSNFTLKIRSTKLEDSAMYFCASRGGGEQYFGPGTRLTVTEDLKNVFPPEVAVFEPSEAEISHTQKATLVCLATGFYPDHVELSWWVNGKEVHSGVSTDPQPLKEQPALNDSRYCLSSRLRVSATFWQNPRNHFRCQVQFYGLSENDEWTQDRAKPVTQIVSAEAWGRADCGFTSESYQQGVLSATILYEILLGKATLYAVLVSALVLMAMVKRKDSRG
B2: TCR1 (TCR, V domains shown)
Valpha: KQEVTQIPAALSVPEGENLVLNCSFTDSAIYNLQWFRQDPGKGLTSLLLIQSSQREQTSGRLNASLDKSSGRSTLYIAASQPGDSATYLCAVNSYSGAGSYQLTFGKGTKLSVIP
Vbeta: EPEVTQTPSHQVTQMGQEVILRCVPISNHLYFYWYRQILGQKVEFLVSFYNNEISEKSEIFDDQFSVERPDGSNFTLKIRSTKLEDSAMYFCASRGGGEQYFGPGTRLTVT

Tests used:
[1] = target: HLA-A*11:01 loaded with KRAS-G12V peptide … (human); assay: cell-based or functional assay
[2] = target: HLA-A*11:01 loaded with KRAS-G12D peptide … (human); assay: cell-based or functional assay
[3] = target: T1, KRAS G12V peptide on HLA-A*11:01; assay: CD69 by flow cytometry; TCR1-transduced Jurkat cells with K562-A*11:01 loaded with peptide at 10^-11 to 10^-6 M; full-length, on cells
[4] = target: T2, KRAS G12D peptide on HLA-A*11:01; assay: as above
[5] = target: T3, KRAS G12S peptide on HLA-A*11:01; assay: killing
[6] = target: T4, KRAS G12C peptide on HLA-A*11:01; assay: killing
[7] = target: T5, KRAS G12A peptide on HLA-A*11:01; assay: killing

Row | Binder | EC50 of CD69 expression of TCR-transduced cells after co-incubation with target cells loaded with graded peptide concentrations [1] [nM] | EC50 of CD69 expression of TCR-transduced cells after co-incubation with target cells loaded with graded peptide concentrations [2] [nM] | EC50 of peptide [3] [nM] | EC50 of peptide [4] [nM] | binding result [5] | binding result [6] | binding result [7]
1 | B1 | 45 | 77 | – | – | – | – | –
2 | B2 | – | – | ~45 | ~77 | recognises | recognises | recognises

Reference: patent EP4647441A1 (dated 2025)
